# Assay results: the supplement of paper PMC10567573
# B1: DYRK1B (parent)
# chain: KKVLNHGYDDDNHDYIVRSGERWL
# B2: CCDC6 (parent)
# chain: FTPPTSLTRAGMSYYNSPGLHVQH
# Variants of: B1
# Experiment: protein stability index of a GFP-peptide fusion (GPS, HEK-293T) (PSI 1-6); higher = more stable
# Details: c terminus: a fixed tail appended
# 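Also: lentivirally expressed fusions sorted by FACS into six bins by GFP to DsRed ratio, PSI derived from sequencing read proportions per bin multiplied by bin number.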
row,Variant,protein stability index
1,V17I,2.55
2,V17E,4.03
3,V17A,3.11
4,V17T,2.97
5,V17L,3.07
6,V17P,3.86
7,V17H,3.46
8,V17W,2.56
9,V17N,3.65
10,V17C,2.6
11,V17R,3.53
12,V17D,3.56
13,V17F,2.74
14,V17K,3.4
15,V17S,3.36
16,V17Q,3.57
17,V17G,3.36
18,V17M,2.98
19,V17Y,2.94
20,Y15M,3.27
21,Y15R,3.72
22,Y15V,3.38
23,Y15T,2.95

row,Variant,protein stability index
1,Y15S,3.32
2,Y15H,3.42
3,Y15N,3.88
4,Y15L,3.05
5,Y15K,3.56
6,Y15I,3.5
7,Y15Q,4.05
8,Y15P,3.6
9,Y15W,3.07
10,G20K,3.32
11,G20L,1.88
12,G20W,2.31
13,G20E,3.65
14,G20T,2.83
15,G20D,3.22
16,G20N,3.29
17,G20M,2.13
18,G20R,3.54
19,G20Q,3.34
20,G20V,2.03
21,G20A,2.73
22,G20F,2.04
23,G20S,3.01

row,Variant,protein stability index
1,G20P,3.2
2,G20Y,2.23
3,G20C,2.95
4,G20I,2.73
5,G20H,2.67
6,W23Y,3.64
7,W23G,4.07
8,W23T,4.3
9,W23I,3.9
10,W23A,3.81
11,W23Q,4.2
12,W23K,4.3
13,W23P,3.7
14,W23F,3.62
15,W23D,4.73
16,W23E,4.46
17,W23V,4.31
18,W23M,3.93
19,W23L,3.88
20,W23R,3.6
21,W23H,3.99
22,W23S,4.47
23,W23C,3.8

row,Variant,protein stability index
1,W23N,4.56
2,S19P,2.51
3,S19V,2.98
4,S19I,2.07
5,S19F,2.29
6,S19D,3.64
7,S19H,3.91
8,S19A,3.57
9,S19M,2.6
10,S19C,2.59
11,S19N,3.22
12,S19W,2.21
13,S19E,3.25
14,S19L,2.42
15,S19K,3.2
16,S19Y,2.53
17,S19G,3.25
18,S19Q,3.46
19,S19R,2.78
20,S19T,3.06
21,R18V,2.67
22,R18S,3.1
23,R18T,2.92

row,Variant,protein stability index
1,R18C,2.82
2,R18H,3.4
3,R18D,3.78
4,R18Y,2.48
5,R18M,2.39
6,R18G,3.45
7,R18K,3.74
8,R18L,2.39
9,R18P,3.24
10,R18Q,3.78
11,R18A,3
12,R18N,2.9
13,R18F,2.39
14,R18E,3.75
15,R18I,2.62
16,R18W,2.38
17,E21A,2.97
18,E21G,2.57
19,E21V,2.28
20,E21R,2.83
21,E21L,3.02
22,E21F,2.16
23,E21S,2.42

row,Variant,protein stability index
1,E21Y,2.32
2,E21N,2.67
3,E21C,2.19
4,E21M,2.57
5,E21D,2.86
6,E21K,3.1
7,E21P,2.61
8,E21T,2.7
9,E21H,2.4
10,E21W,2.57
11,E21I,2.16
12,E21Q,3.05
13,I16P,3.55
14,I16A,3.73
15,I16M,3.32
16,I16R,3.49
17,I16W,2.71
18,I16T,3.47
19,I16S,3.68
20,I16L,3.09
21,I16G,3.71
22,I16H,3.23
23,I16Q,3.58

row,Variant,protein stability index
1,I16F,3.09
2,I16C,3.48
3,I16N,3.24
4,I16V,3.86
5,I16Y,3.89
6,I16K,3.49
7,I16D,3.84
8,I16E,4.17
9,R22H,3.13
10,R22Q,3.53
11,R22Y,2.52
12,R22T,2.83
13,R22K,3.29
14,R22P,3.16
15,R22N,3.31
16,R22M,2.57
17,R22I,2.17
18,R22W,2.06
19,R22V,2.6
20,R22D,3.44
21,R22C,2.85
22,R22L,2.25
23,R22F,1.91

row,Variant,protein stability index
1,R22E,3.58
2,R22S,3.35
3,R22G,3.19
4,R22A,3.15
5,L24V,3.8
6,L24I,3.33
7,L24P,3.82
8,L24Y,3.03
9,L24M,3.49
10,L24W,2.85
11,L24S,3.58
12,L24K,3.85
13,L24R,3.55
14,L24C,3.46
15,L24E,4.07
16,L24A,3.37
17,L24D,4.08
18,L24N,3.75
19,L24H,3.57
20,L24G,3.81
21,L24F,2.81
22,L24Q,3.69
23,L24T,3.51

# Variants of: B2
# Experiment: as above
# Details: c terminus: a fixed tail appended
row,Variant,protein stability index
1,R9E,2.63
2,R9A,2.1
3,R9D,2.77
4,R9C,2.58
5,S6A,1.51
6,S6G,2
7,S6Y,1.84
8,S6C,2.1
9,S6L,2.45
10,S6T,1.73
11,S6H,1.66
12,S6E,1.91
13,S6N,1.84
14,S6R,2.47
15,S6W,2.27
16,S6Q,2.21
17,S6F,2.98
18,S6D,1.79
19,S6M,1.65
20,S6I,2.2
21,S6K,1.51
22,S6V,2.1
23,T5N,1.81
24,T5A,2
25,T5R,1.96

row,Variant,protein stability index
1,T5K,1.54
2,T5I,1.84
3,T5E,2.29
4,T5D,1.89
5,T5S,1.84
6,T5P,1.68
7,T5V,2.01
8,T5Q,1.53
9,T5M,2.42
10,T5G,2.07
11,T5Y,1.01
12,T5F,1.69
13,T5L,2.29
14,T5H,1.72
15,T5C,1.74
16,P4D,2.23
17,P4Y,3.21
18,P4H,2.19
19,P4R,1.83
20,P4I,1.51
21,P4T,2.27
22,P4F,1.97
23,P4C,2.3
24,P4A,1.15
25,P4S,1.42

row,Variant,protein stability index
1,P4L,4.29
2,P4M,2.04
3,P4V,2.5
4,P4Q,2.48
5,P4E,1.99
6,P4N,3.07
7,P3Q,2.32
8,P3V,2.08
9,P3T,2.35
10,P3M,1.87
11,P3W,1.21
12,P3Y,1.93
13,P3I,1.63
14,P3K,2.78
15,P3H,1.79
16,P3R,2.14
17,P3D,2.1
18,P3G,2.07
19,P3C,2
20,P3N,2.02
21,P3A,1.73
22,P3S,2.1
23,P3L,1.98
24,P3E,2.16
25,P3F,1.95

row,Variant,protein stability index
1,T2M,2.6
2,T2I,2.6
3,T2H,1.85
4,T2C,1.91
5,T2G,2.47
6,T2E,2.83
7,T2F,1.48
8,T2S,1.5
9,T2R,2.17
10,T2N,1.55
11,T2Y,1.69
12,T2L,1.87
13,T2D,2.1
14,T2K,1.79
15,T2W,2.67
16,T2V,1.96
17,T2P,2.26
18,T2A,1.84
19,T2Q,1.91
20,F1G,2.54
21,F1H,2.9
22,F1E,2.85
23,F1Q,2.64
24,F1V,2.41
25,F1P,2.82

row,Variant,protein stability index
1,F1D,3.56
2,F1K,2.49
3,F1R,2.19
4,F1M,3.01
5,F1L,1.89
6,F1N,2.88
7,F1I,2.46
8,F1C,1.52
9,F1T,2.94
10,F1W,2.14
11,F1S,2.01
12,F1Y,1.91
13,F1A,2.65
14,T8D,1.82
15,T8G,2.06
16,T8Q,2.53
17,T8L,1.78
18,T8S,1.83
19,T8N,2.06
20,T8V,1.85
21,T8Y,1.5
22,T8A,1.76
23,T8E,1.41
24,T8C,2.73
25,T8K,1.46

row,Variant,protein stability index
1,T8I,2.14
2,T8W,1.78
3,T8H,1.56
4,T8P,2.46
5,T8F,2.56
6,T8M,1.92
7,L7Y,2.39
8,L7N,1.7
9,L7Q,2.38
10,L7T,1.89
11,L7V,1.56
12,L7G,1.66
13,L7P,2.33
14,L7C,2.61
15,L7W,2.33
16,L7R,2.04
17,L7E,2.12
18,L7D,1.62
19,L7F,2.4
20,L7K,2.59
21,L7S,1.7
22,L7A,2.21
23,L7H,2.28
24,L7M,2.29
25,L7I,1.41
